In patent publication US20260265340A1 (CUROGEN TECHNOLOGY, published 2026):

Target: T1, human TNFα (human, UniProt P01375 77-233)
T1 construct: also called hTNFα
Test: ELISA, cytokine coated on the plate; the text value differs from the table cell 43.8
Description: The wells were then blocked with ELISA TBS buffer containing 5% BSA at 100 μl/well and incubated at room temperature for 1 hour, followed by three washes with ELISA TBS buffer (200 μl/well). […] After three washes with ELISA TBS buffer (200 μl/well), HRP-conjugated secondary antibody (Abcam, Cat. Ab98624) was applied and incubated at room temperature for 1 hour.

T1 sequence (P01375 77-233 limits assumed): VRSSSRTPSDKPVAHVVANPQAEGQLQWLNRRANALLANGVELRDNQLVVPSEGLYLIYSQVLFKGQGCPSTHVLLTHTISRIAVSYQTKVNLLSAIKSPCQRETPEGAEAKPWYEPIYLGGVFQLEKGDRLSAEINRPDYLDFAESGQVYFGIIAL

EC50: 0.0431 µg/mL
B1: IL-17RA/RC-Fc-TNFR2 fusion protein T1-T4-14 (Fc fusion)
chain: LRLLDHRAPVCSQPGLNCTVKNSDCLDDSWIHPRNLTPSSPKDLQIQLHFAHTQQGDLVPVAHIEWTLQTDASILYLEGAELSVLQLDTNERLCVRFEFLSKLRHHHRRWRFTFSHFVVDPGQEYEVTVHHLPKPIPDGDPNHQSKNFLVPDCEHPRMKVTTPCMSSALPWLNVSADGDNVHLVLNVSEEQHFGLSLYWNQVQGPPKPRWHKNLTGPQIITLNHTDLVPCLCIQVWPLEPDSVRTNICPFREDPRAHQNLWQAARLRLLTLQSWLLDAPCSLPAEAALCWRAPGGDPCQPLVPPLSWENVTVDKVLEFPLLKGHPNLCVQVNSSEKLQLQECLWADSLGPLKDDVLLLETRGPQDNRSLCALEPSGCTSLPSKASTRAARLGEYLLQDLQSGQCLQLWDDDLGALWACPMDKYIHKTGIEGRMDRNTGRGGEEKKKEKEKEEQEERETKTPECPSHTQPLGVFLFPPKPKDTLMISRTPEVTCVVVDVSQEDPEVQFNWYVDGVEVHNAKTKPREEQFNSTYRVVSVLTVLHQDWLNGKEYKCKVSNKGLPSSIEKTISKAKGQPREPQVYTLPPSQEEMTKNQVSLTCLVKGFYPSDIAVEWESNGQPENNYKTTPPVLDSDGSFFLYSRLTVDKSRWQEGNVFSCSVMHEALHNHYTQKSLSLSLGKGGGGSGGGGSGGGGSLELPAQVAFTPYAPEPGSTCRLREYYDQTAQMCCAKCPPGQHAKVFCTKTSDTVCDSCEDSTYTQLWNWVPECLSCSSRCSSDQVETQACTREQNRICTCRPGWYCALSKQEGCRLCAPLSKCRPGFGVARPGTETSDVVCKPCAPGTFSNTTSSTDICRPHQICSVVAIPGNASMDAVCTSTSPTRSMAPGAVHLPQPVSTRSQHTQPTPGPSTAPSTSILLPMGPSPPAEGSTGD
notes: Structure T1c-Fc-T4g; also called T1c-Fc-T4g; IL-17RA/RC-Fc-TNFR2 (T1-T4-14)
